In the DeepSol protein solubility set:

Assay: soluble on expression in E. coli; label from the status in PepcDB or PDB records

Sequence | soluble on expression in E. coli
MGSDKIHHHHHHMANALGLDFGTTNTVLAQSIDETTTHSVQFTSMAGTTDSMRTALSFMKDAQLGARALKVEAGQAAIRQFIDNPGDCRFLQSIKTFAASALFQGTLVHARRFQFEDLMEVFLKRLETYAGDGWPATASRIVAGRPVHFAGASPDPELAMRRYNEALTRLGFPEIHYVYEPVAAAFYFAQHLTTDATVLVADFGGGTTDYSLIRFERKAGVLSAVPVGYSGVGLAGDQFDARIIEHLVAPEIGKGSQFKSFDKILDIPSNYYTSFSRWNQLSVFKSSKEFADLKQLVRQSLAPDKLELFIDLVEHDEGYPLYQAVSSTKMALSAADEAEFNFSPLGAAGRKTVKRQDFESWIADDLTRIESALDDVLTRTNTEAGAVDKVFLTGGTSFVPAVRRIFTERFSQDRIESGGEMVSIAHGLALIGDRDDIALWTA | not soluble
MGSDKIHHHHHHMANFSYEVFSKVVERGTLAKAAAELNVTPSAVSHSVSQLETELGFPLLIRNRTGVALTEDGAQVLPIIQSIQNLEEQLTQVADNINGVNTGRIRIGAFSSVSTNWLPTIIRRFKKRYPHIEISVVQGTFNRIVEAVRLGTADIGFSSLPVGPGVVVEPLLKDPIYCITAKQFKPKNGRTVTQADVDKQNFILQQIDYDRDTKNALDRYHVSSNAINYSIDDQSILSMVESGLGMGILPKLAVQKLVGDVNMYPFSEPFERTLCLVINPTIKKSPSVQRMQQVIHSFLAETYGEAFLGHQG | not soluble
MGSDKIHHHHHHMAPEDWLRAETQGDIVALVHSHPGGQPYLSDVDRRLQVQSDLPWWLVCAGQVHKFRCVPHLTGRHYKHGVFDCYTLFRDAYHLAGIDMPDFHRDDDWWRHGDNLYLDNLETTGFYRVSAASAQPGDVLICCFGSSVPNHAAIYCGDGELLHHIPEQLSKRERYTDKWQRRTHSIWRHRAWRASAFTGICNDFAAASACR | not soluble
MGSDKIHHHHHHMAPLLFRQILDLEAEAIQRAAERADAEAFANATQLIANCSGKVVLSGVGKSGIIARKITATLLSIGTLSAFLHPCDALHGDLGIVTEQDVVVMLSNSGETDELLAMLPHLQRRQVPIIAIVGNMRSTLARVAAAVLDASVDREACPLNLAPTASTTVALAIGDALAAQVMDYRSVTSEQFAFNHPAGRLGKRLTLKVVDVMHQGEELPLLPPEARFVEVVTAISRGGLGAVPIVEADGRLLGLITDGDLRRLLEQTSPAKLDQITAAEFMTPQPIAVEGDLLAYDALHLMENRPSQISVLPVVDAAQRCLGLVRIHDLIRSGI | not soluble
MGSDKIHHHHHHMAQLVAIDNKNHLNLKVDAAKAELHGAGLHLVPAVMAEFTSMAVQYPLVITKNADTGQFVVAAMLGFESGENLFWRGGQWQGLYLPLQIRRQPFFVGNPEQNSEQKVAGDYVVCFDSESPAIVSNDGQALFSEDGVDTEYFQQAKYCLAQLLEGELANKKLLEQLQSMELLQVMQMEVTFANQQSTTLNGLYTIDTEKLAALSAEKIASLHKAGLLQAIYTLITSLGQIHHLIDLKNKQLGC | not soluble
MGSDKIHHHHHHMARKDKIVTPSVTQKLQSLGYNVADWDDSKTTSKLTDEIITVLKKASKSENGNEGYPDRIYCNKKKKLLILVEEKPTMQEHNIESIKSGCIAGLKWYLKQFLSEKFSSWKIIGIAVSGDLSDQYKHKFSCFLIDKQKISLAENVNNFLKENEFIALFNNIDEEKAISKVTKVSKKINKLLRSIDSQKRPIILAALMISLYRSEKYDNNFPDIYENYNSEQILNNIYPTVKNILTAEDVPEEKLKSLELELNSINQDPSLKNTNILKEILKELDENIIQLFNDTFSTTSNYDIMGKFYEEFLRFAGVSNVKKGIVLTPRHIATLFTKLIPFKKNDKILDLCCGTGAFLIAGMNKLLSLKGIDAQNVKSNQLLGFEINPTMYICAISNMLFRGDGKSKIYNMDSINDDKVNKIISESAPTIGFINPPYSGKENKEDPTPKEITFLKKC | not soluble
MGSDKIHHHHHHMARQFIYHMAGLSKTYGNKKILENIHLSFYPDAKIGILGPNGAGKSTILRIMAGIDKEYTGEAWLSEGVRCGYLPQEPFLDASKDVRDNVMEGVADKQAIVERYNELMMNYSEETADESARLQDIIDGQNLWDLESQVEMAMAALGCPPANGDVTKLSGGERRRVALCKLLLSKPDLLLLDEPTNHLDAETTAWLERYLREYSGAVLLVTHDRYFLDNVTGWILELDRGKGIPYEGNYSAYLAAKAKRLAQEGREEAARQRALSREQEWIASSPKGRQAKSKARIKAYDELVQASRERRPGEAQIIIPIGERLGQVVIEVDNLSKAYGERVLIDDLSFKLPAGGIVGVIGANGMGKSTLFKMLTGQEQPDSGQIRIGETAHMSYVDQSRDSLVGDKTVWEEISGGNDVIKLGKYEMNSRAYCGAFNFKGADQQQKVANLSGGQRNRVHLAKLLKEGGNVLLLDEPTNDLDTETLGALEDALENFAGCAVIISHDRMFLDRLATHILAFEGDGHVEWFEGNFAEYEADKVRRFGADSLNLKRVNYKPLTR | not soluble
MGSDKIHHHHHHMASDIHTLSDSLLWKRFLEGDSSAYSQIYNQTVQELFRYGLLYTSDRELVKDCIHDVFVKIYTNRAKLTPTDNIIAYLMVALKNTLFNALKKTSDSFSLDEADEKEDQSEEHFSTPETIYINKEQEKNTHMKVHAMMSSLTTRQREIVYYRYIKDMSIDEISKITDMNYQSVSNSIQRALGRVRNLFKRE | not soluble
MGSDKIHHHHHHMASIDFRNKINWHRRYRSPQGVKTEHEILRIFESDRGRIINSPAIRRLQQKTQVFPLERNAAVRTRLTHSMEVQQVGRYIAKEILSRLKEQDRLEEYGLDALTGPFESIVEMACLMHDIGNPPFGHFGEAAINDWFRQRLHPEDAESQPLTHDRCVVSSLRLQEGEENLNDIRRKVRQDICHFEGNAQGIRLVHTLMRMNLTWAQVGGILKYTRPAWWRGPVPDSHRYLMKKPGYYLSEEKYIARLRKELQLAPYSRFPLTWIMEAADDISYCVADLEDAVEKRIFSVEQLYHHLYHAWCHHEKDSLFELVVGNAWEKSRANTLSRSTEDQFFMYLRVNTLNKLVPYAAQRFIDNLPQIFAGTFNQALLEDASGFSRLLELYKNVAVEHVFSHPDVEQLELQGYRVISGLLDIYQPLLSLSLNDFRELVEKERLKRFPIESRLFQKLSTRHRLAYVEVVSKLPTDSAEYPVLEYYYRCRLIQDYISGMTDLYAWDEYRRLMAVEQ | not soluble
MGSDKIHHHHHHMASLPRLYYVTSGLDEANAFATWRAVISPLFEPRPCGPSRKTPTGSAYGIIIGDLVVAKVAFNAQDFVRDAQRIAVTPDHLLLHLYVSGGFNGEVTRQQTVIGPGKVALIDLACPLSTRAFASNTMCLIVPRKLLAGLPLHALKPKLDPLRNDLLAAYIRSLQERSAQLTEADVATTVAETADFLRRLLAPSAEADLAPERSADETILALTEALIRDNLALPELSPDWLAQQLDVSRASLYRLFAERGGVMRYVQERRLLAVQAALADPLETRRLSRLASDLGFKSEAHFSRSFRARFGITASAYRKAQLDASAAIQLTSPAVVQQWWTAVARDPLRHAG | not soluble
MGSDKIHHHHHHMATGTLPDAGQILNSLINSILLVDDDLAVHFANPAAQQLLAQSSRKLFGTPLPELLSYFSLNIGLMQESLQAGQGFTDNEVTLVIDGRSHILSLTAQRLPEGFILLEMAPMDNQRRLSQEQLQHAQQVAARDLVRGLAHEIKNPLGGLRGAAQLLSKALPDPALTEYTKVIIEQADRLRNLVDRLLGPQHPGMHVTESIHKVAERVVKLVSMELPDNVKLIRDYDPSLPELPHDPDQIEQVLLNIVRNALQALGPEGGEIILRTRTAFQLTLHGVRYRLAARIDVEDNGPGIPPHLQDTLFYPMVSGREGGTGLGLSIARSLIDQHSGKIEFTSWPGHTEFSVYLPIRK | not soluble
MGSDKIHHHHHHMATKHEQILQYITNLEVGEKISVRRIAKDLQVSEGTAYRAIKEAENQGLVSTIERVGTIRIEKKQKENIEKLTYAEVVNIVDGQVLGGRDGLHKTLNRFVIGAMKLDAMMRYVEPGNLLIVGNRYQVHQIALEAGAAVLITGGFDTSDEAIKLADELDLPVISTSYDTFTVATMINRAIYDQLIKKEITLVDDILIPLQDTYYMTTENVVGKWHELNEKTGHSRYPVIDENMKIQGMVAAKDVLNASRHTPIEKVMTKNPITVSERTSVAAVAHVMVWEGIELLPVIDSHRKLIGVVSRQDVLKALQMIQRQPHVGETIEDLMTNGLNESSSDQGDSYEVEITPQMTNQLGTISHGVMTSLVIESGSRVLRKYKKGDLVVENITLYFLKPVQIDSRLTIRPRVLEIGRKHGKIDVEMYHEGEIVGKALFMAQIID | not soluble
